Assay [1] addresses T1, GHSR (GHS-R1a) (Homo sapiens, UniProt Q92847).
T1 construct: expressed in transfected cells; host or cells: HEK 293 cells transfected with GHS-R1a (membrane suspension)
As to the kind of experiment: biochemical. The settings on record: lower limit from test at 100 µM; read-out: IC50 against GHSR. The class given is binding. How it is done: Peptide binding affinity for the ghrelin receptor was determined using a competitive radioligand-displacement binding assay,[22] with details provided in the Supporting Information. […]
GHSR receptor binding assays. Peptide binding affinity for the ghrelin receptor was determined using a competitive radioligand-displacement binding assay.1 Assays were performed using GHS-R1a transfected HEK 293 cells as the receptor source and human His[125I]-ghrelin(1−28) (PerkinElmer Inc. NEX388010UC ) as the radioligand. Human ghrelin(1−28) was used as a reference to ensure the validity of the results. A suspension of membrane from HEK 293/GHS-R1a cells (100,000 cells per assay tube) were incubated with ghrelin(1−8) peptide analogues (at […]
ghrelin (15 pM per assay tube) in binding buffer (25 mM HEPES, 5 mM magnesium chloride, 1 mM calcium chloride, 2.5 mM EDTA, and 0.4% BSA, pH 7.4). The resulting suspension was incubated for 20 min under shaking (550 rpm) at 37 °C. Unbound [ 125I]-ghrelin was removed and the amount of [ 125I]-ghrelin bound to the membranes was measured by γ counter. IC 50 values were determined by nonlinear regression analysis to fit a four-parameter dose−response curve using Prism 6 (version 6.0c). All binding assays were performed in triplicate. […]

Assay [2] concerns 22Rv1 cells. Put plainly: GOAT ligand labeling and imaging in 22Rv1 prostate cancer cells. The class given is cell-based, human. The settings on record: 5 μM ligand 15 with 40 μM ligand 12, 30 min RT, p < 0.05. How it is done: Prostate cancer (PCa) cells LNCaP (ATCC, CRL-1740) and 22Rv1 (ATCC, CRL-2505) were maintained in a 75 mL vented tissue culture flask (Celltreat) at 37 °C with 5% CO2 in complete 1× RPMI (Roswell Park Memorial Institute) media supplemented with 10% FBS and 1% (v/v) penicillin-streptomycin (Mediatech). Cell lines were passaged upon reaching 70% confluency (∼2–3 days). For microscopy studies, PCa cells were plated in 2 mL of complete 1× RPMI in a six-well plate (Corning) containing sterile 12 mm poly-L-lysine coated glass coverslips (Neuvitro, GG-12-PDL) in each well. The cells were allowed to adhere and reach 70% confluence on the coverslips prior to labeling.
Upon reaching confluency, coverslips with attached PCa cells were treated with ligands at the indicated concentration for 30 min at RT (unless otherwise stated). Cells were washed 3× with 1× phosphate-buffered saline (PBS) (Cellgro) and then fixed for immunofluorescence staining as described above. For ligand competition experiments, cells were incubated with 5 μM ligand 15 alone, 5 μM ligand 15 with 40 μM ligand 12, or PBS alone for 30 min at RT. […]
The fluorescence range of intensity was adjusted identically for each image series. […] Total cell fluorescence was determined by calculating the integrated density of mean gray value in a cell area compared to background as shown in eqs 4 and 5. […]

Assay [3] concerns the target human ghrelin O-acyltransferase (hGOAT) of the hGOAT inhibition assays (human) (UniProt Q96T53).
Assay [4] has as its target T2, human ghrelin O-acyltransferase (hGOAT) of the hGOAT inhibition assays (human, UniProt Q96T53 1-435).
T2 sequence (looked up): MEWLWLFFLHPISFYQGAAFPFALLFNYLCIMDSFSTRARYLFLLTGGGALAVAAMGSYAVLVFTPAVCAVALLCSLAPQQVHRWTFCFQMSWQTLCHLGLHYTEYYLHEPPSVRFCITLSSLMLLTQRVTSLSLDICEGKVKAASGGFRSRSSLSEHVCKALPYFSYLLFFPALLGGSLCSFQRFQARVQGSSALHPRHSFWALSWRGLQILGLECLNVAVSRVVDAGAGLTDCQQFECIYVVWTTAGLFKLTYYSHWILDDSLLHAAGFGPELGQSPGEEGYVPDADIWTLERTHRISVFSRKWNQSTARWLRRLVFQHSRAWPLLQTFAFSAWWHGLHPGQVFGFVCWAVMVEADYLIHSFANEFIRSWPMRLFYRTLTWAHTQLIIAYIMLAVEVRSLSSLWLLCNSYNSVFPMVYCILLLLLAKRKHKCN
Put plainly: cell-based or functional assay.

Peptide text beside a SMILES is read from it. A value given as a limit tells only on which side of the number the result lay.

The record followed here is article PMC10442857, “Cellular Uptake of a Fluorescent Ligand Reveals Ghrelin O-Acyltransferase Interacts with Extracellular Peptides and Exhibits Unexpected Localization for a Secretory Pathway Enzyme” (ACS Chemical Biology, 2023).

As to `CC(C)C[C@H](NC(=O)[C@H](Cc1cccc2ccccc12)NC(=O)[C@H](CN)NC(=O)[C@H](CO)NC(=O)CN)C(=O)N[C@@H](CO)C(=O)N1CCC[C@H]1C(=O)N[C@H](C(N)=O)[C@@H](C)O` [ligand 12, H-GS-Dap-Nal-1-LSPT-NH2] (HELM PEPTIDE1{G.S.[NC[C@H](N[*:1])C(=O)[*:2]].[O=C([C@H](Cc1cccc2ccccc12)N[*:1])[*:2]].L.S.P.T.[am]}$$$$V2.0), the IC50 in assay [1] was not below 100000 nM. Also, in assay [2], the “effect of unlabeled competitor on ligand 15 internalization (total cell fluorescence)” value is listed as “significant reduction of ligand 15 internalization”. Take “ligand 15, H-GS-Dap-Nal-1-LSPTK(SulfoCy5)-NH2 (peptide)”: the inhibition of hGOAT activity by ligand 15 (IC50) in assay [3] was 17 nM.

B1: ligand 5, H-Inp-S-Dap-FLSPY-NH2 (peptide)
chain: XSXFLSPY
HELM: PEPTIDE1{[O=C(C1CCNCC1)[*:2]].S.[NC[C@H](N[*:1])C(=O)[*:2]].F.L.S.P.Y.[am]}$$$$V2.0
SMILES: CC(C)C[C@H](NC(=O)[C@H](Cc1ccccc1)NC(=O)[C@H](CN)NC(=O)[C@H](CO)NC(=O)C1CCNCC1)C(=O)N[C@@H](CO)C(=O)N1CCC[C@H]1C(=O)N[C@@H](Cc1ccc(O)cc1)C(N)=O
On to B1, for which the “inhibition of hGOAT activity (IC50 against hGOAT)” value (from here on “inhibition … (IC50 against hGOAT)”) in assay [4] was more than 100000 nM.

B2: ligand 12, H-GS-Dap-Nal-1-LSPT-NH2 (peptide)
chain: GSXXLSPT
HELM: PEPTIDE1{G.S.[NC[C@H](N[*:1])C(=O)[*:2]].[O=C([C@H](Cc1cccc2ccccc12)N[*:1])[*:2]].L.S.P.T.[am]}$$$$V2.0
SMILES: CC(C)C[C@H](NC(=O)[C@H](Cc1cccc2ccccc12)NC(=O)[C@H](CN)NC(=O)[C@H](CO)NC(=O)CN)C(=O)N[C@@H](CO)C(=O)N1CCC[C@H]1C(=O)N[C@H](C(N)=O)[C@@H](C)O
For B2, the “inhibition … (IC50 against hGOAT)” value in assay [4] came out at 6 nM.

B3: ligand 4, H-Aib-S-Dap-FLSPY-NH2 (peptide)
chain: XSXFLSPY
HELM: PEPTIDE1{[Aib].S.[NC[C@H](N[*:1])C(=O)[*:2]].F.L.S.P.Y.[am]}$$$$V2.0
SMILES: CC(C)C[C@H](NC(=O)[C@H](Cc1ccccc1)NC(=O)[C@H](CN)NC(=O)[C@H](CO)NC(=O)C(C)(C)N)C(=O)N[C@@H](CO)C(=O)N1CCC[C@H]1C(=O)N[C@@H](Cc1ccc(O)cc1)C(N)=O
Take B3: the “inhibition … (IC50 against hGOAT)” value in assay [4] was more than 100000 nM.

A word on the IC50: it is the concentration needed to halve the response being measured.
